# B1: recombinant human IL-12 (Interleukin-12) (ligand)
# chain 1: IWELKKDVYVVELDWYPDAPGEMVVLTCDTPEEDGITWTLDQSSEVLGSGKTLTIQVKEFGDAGQYTCHKGGEVLSHSLLLLHKKEDGIWSTDILKDQKEPKNKTFLRCEAKNYSGRFTCWWLTTISTDLTFSVKSSRGSSDPQGVTCGAATLSAERVRGDNKEYEYSVECQEDSACPAAEESLPIEVMVDAVHKLKYENYTSSFFIRDIIKPDPPKNLQLKPLKNSRQVEVSWEYPDTWSTPHSYFSLTFCVQVQGKSKREKKDRVFTDKTSATVICRKNASISVRAQDRYYSSSWSEWASVPCS
# chain 2: RNLPVATPDPGMFPCLHHSQNLLRAVSNMLQKARQTLEFYPCTSEEIDHEDITKDKTSTVEACLPLELTKNESCLNSRETSFITNGSCLASRKTSFMMALCLSSIYEDLKMYQVEFKTMNAKLLMDPKRQIFLDQNMLAVIDELMQALNFNSETVPQKSSLEEPDFYKTKIKLCILLHAFRIRAVTIDRVMSYLNAS
# Legend:
# [1] = biological target: T1, human IL-12 receptor beta1 and beta2 coexpressed on COS cells (cotransfection of the pEF-BOS beta1 plasmid … (human)); test: equilibrium binding of 125I-labeled IL-12 to COS cells cotransfected with beta1 and beta2 plasmids, Scatchard analysis, low affinity site
# Description: (§1) Recombinant human IL-12 was labeled with ^125I as follows. Iodogen was dissolved in chloroform. 0.05 mg aliquots of Iodogen were dried in 12×150 mm borosilicate glass tubes. For radiolabeling, 1.0 mCi Na[^125I] was added to the Iodogen-coated borosilicate glass tube, which also contained 0.05 ml of Tris-iodination buffer (25 mM Tris-HCL pH 7.5, 0.4M NaCl and 1 mM EDTA) to form a ^125I solution. The ^125I solution was activated by incubating for 6 minutes at room temperature. The activated ^125I solution was transferred to a tube containing 0.05 to 0.1 ml recombinant human IL-12 (31.5 µg) in Tris-iodination buffer. The resulting mixture of the activated ^125I solution and the recombinant human IL-12 was incubated for 6 minutes at room temperature. At the end of the incubation, 0.05 ml of Iodogen stop buffer (10 mg/ml tyrosine, 10% glycerol in Dulbecco's phosphate buffered saline (PBS), pH 7.40) was added and reacted for 3 minutes. The resulting mixture was then diluted with 1.0 ml Tris-iodination buffer containing 0.25% bovine serum albumin (BSA), and applied to a Bio-Gel P10DG desalting column for chromatography. The column was eluted with Tris-iodination buffer containing 0.25% BSA. […] The TCA precipitable radioactivity (10% TCA final concentration) was typically in excess of 95% of the total radioactivity. […]
# [2] = biological target: T1, human IL-12 receptor beta1 and beta2 …; test: equilibrium binding of 125I-labeled IL-12 to COS cells cotransfected with beta1 and beta2 plasmids, Scatchard analysis, high affinity site
# Description: as §1
binder,measurement,setting,value
B1,Kd,[1],5 nM
same,Kd,[2],0.05 nM

# From patent publication US5840530, “DNA encoding receptors for the beta-2 chain of human IL-12” (Hoffmann-La Roche Inc., dated 1998)
